Measurements taken from the supplement of paper PMC9170038.

Test system: MS2 coat protein
Test: apparent KD of MS2 coat protein; designed switch direction (-1 OFF switch, 1 ON switch): -1; higher = weaker reporter binding
Outline: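 Transcription of designed RNA switches on Illumina chips was done by stalled E. coli RNA polymerase. SNAP-549-labelled MS2 coat protein was then titrated in doubling steps from 0.7 or 1.5 nM to 3 µM, with steps of 0.8–1.5 h at the lowest and 10–20 min at the highest concentration. The per-design median over clusters of curve-fitted normalised fluorescence is reported as apparent KD.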

[1] = Eterna round: R95, input ligand: microRNA oligo, concentration not stated
[2] = input ligand: microRNA oligo, concentration not stated

Sequence | apparent KD of MS2 coat protein (input ligand: FMN 200 uM) [nM] | apparent KD of MS2 coat protein (input ligand: none) [nM] | other results
GUUUUCAGACGGAGAUCCUACAUGAGGAUCACCCAUGUCUCUCUAGCUAAUUGCUCGUCUUAUUCUCCUCUGUUCUC [Elimod 38 - Jieux - Sensor, turn-off variant 1] (Eterna round: R97, puzzle: Sensor, turn-off variant 1) | 40 | 47.5 | 
UAAAACCUAGGAUAUACAUGAGGAUCACCCAUGUUCGAAGGAGCCCAAGUGACUUCUAGUAGAAGGAGGGCGAA [Aratisedso] (puzzle: Exclusion 3) |  |  | apparent KD of MS2 coat protein [1]: 18.8 nM
UAAAAGCUAGGAUAUAGAGACAGAAACUUGAGGAUCACCCAAGUGAGUCAAGCUAUGUCGCUAGAAGGAGCGAAAA [Qubetizaa] (Eterna round: R97, puzzle: Exclusion 5) | 278 | 32 | 
UAAAAGUGAGGAUAUACAUUAAGGUAAGUCCGGAUGCGAAGACAUGAGGAUCACCCAUGUAGAAGGCACACAAA [Aredge] (puzzle: Exclusion 2) |  |  | apparent KD of MS2 coat protein [1]: 32.1 nM
UAAACAAGCUAAAGAUCCUACAUGAGGAUCACCCAUGUGCUCGUCUUGUAACGUACUGUGACGAAAGUCACGGUACG [JL TOV1 3.10] (Eterna round: R97, puzzle: Sensor, turn-off variant 1) | 194 | 202 | 
UAAAUUAUUGUAAGGAUAUCAGUCCCGAAAGGGACUGAGAAGGUACAUGAGGAUCACCCAUGUGAAAUAAGAAU [Mod of Zala 15 - Jieux - Brourd's Mod of Exclusion 4] (Eterna round: R97, puzzle: Brourd's mod of Exclusion 4) | 53.1 | 22.1 | 
UAAAUUGCAAGCAGAUCCUACAUGAGGAUCACCCAUGUGCUCUGAAAUAACGCAGAAUUACUGCGAGCUCGUCUUAU [Winner reversed engineered 26] (Eterna round: R97, puzzle: Sensor, turn-off variant 1) | 80.9 | 94.3 | 
UAAAUUGGGUAGGAUAUGUUUGUUUAAAGAGCCACAGAAGGACCCACAUGAGGAUCACCCAUGUAUCACCUAUG [Eternabot (L2) Solution 60] (Eterna round: R97, puzzle: Exclusion 6) | 33.6 | 27.1 | 
UAACCACAUGAGGAUCACCCAUGUGAGGAUAUGUCCAUAUUCGGCAAAUCGGAUAUGGACAGAAGGCACACCGG [JR_Exclusion1_Sub010] (puzzle: Exclusion 1) |  |  | apparent KD of MS2 coat protein [1]: 40.7 nM
UAACUUCUUGUAAGGAUAUUGGCGCGAAAGCGCACCGAGAAGGUACAUGAGGAUCACCCAUGUGAAAUAAGAAU [Mod of Zala 13 - Jieux - Brourd's Mod of Exclusion 4] (Eterna round: R97, puzzle: Brourd's mod of Exclusion 4) | 47.5 | 27.2 | 
UAAGAGUGAGGAUAUACGUCGCUGGUCCGGAUGGACGCAUGACAUGAGGAUCACCCAUGUAGAAGGCACAAAAC [Enxela] (puzzle: Exclusion 2) |  |  | apparent KD of MS2 coat protein [1]: 26.8 nM
UAAGAUUACCGAGGAUAUGGUAAUUUUUGUUAACCAGAAGGCGGACUCAACAUGAGGAUCACCCAUGUAUAAAGGGUAUUAGUU [JR_ExcNG1_Sub040] (Eterna round: R96, puzzle: Exclusion NG 1) | 100 | 96.4 | apparent KD of MS2 coat protein [2]: 74.2 nM
UAAGCUACUGUCAGGAUAUCGUAAUUGGUGAACGACGAGAAGGGACAUGAGGAUCACCCAUGUCGAUGACUGGG [Eternabot (L2) Solution 97] (Eterna round: R97, puzzle: Brourd's mod of Exclusion 4) | 386 | 200 | 
UAAGUGUCAGGAUAUACAUGAGGAUCACCCAUGUGCCUCGCUACGGCCAGGCUCCCGUGUAGAAGGGAUCGUAA [Eternabot (Original) Solution 23] (Eterna round: R97, puzzle: Exclusion 3) | 110 | 61.8 | 
UAAUAAAGUGUGAGGAUAUGCUGGUCGAUAGAUCAGCAGAAGGCACAUGAGGAUCACCCAUGUAAUAUAUUUUA [Mat - Exclusion 4 - JL Mod - D46] (Eterna round: R96, puzzle: Brourd's mod of Exclusion 4) | 238 | 56.1 | apparent KD of MS2 coat protein [2]: 40.6 nM
UAAUAAAGUGUGAGGAUAUGCUGGUCGAUAGAUCAGCAGAAGGCACAUGAGGAUCACCCAUGUAAUAUAUUUUA [Mat - Exclusion 4 - JL Mod - D46] (puzzle: Brourd's mod of Exclusion 4) |  |  | apparent KD of MS2 coat protein [1]: 54.3 nM
UAAUAUCUGCAGGAUAUCGGUGUAGCACGCGUAUGAGAAGGGCAGACAUGAGGAUCACCCAUGUAUUAUAUCCG [Eternabot (L2) Solution 39] (Eterna round: R97, puzzle: Exclusion 6) | 34.8 | 24.5 | 
UAAUGCAAGUAAAGAUCCUACAUGAGGAUCACCCAUGUGCUCGUCUUAUAAAGUACUAUCACGAAAGUGAUAGUACA [Mat - Sensor v3 - turn-off var 1 - Eli Mod - D83] (puzzle: Sensor v3, turn-off variant 1) |  |  | apparent KD of MS2 coat protein (Eterna round: R95, input ligand: FMN 200 uM): 385 nM; apparent KD of MS2 coat protein [1]: 31.8 nM; apparent KD of MS2 coat protein (Eterna round: R95, input ligand: none): 167 nM
UAAUUGUGAGGAUAUCUGGCUUCGAUCGUGAGAUCGAGGCUAGAGAAGGCACAUGAGGAUCACCCAUGUUCCUU [jl-ex4-4.10 salish99 mod] (Eterna round: R97, puzzle: Exclusion 4) | 85.2 | 21.5 | 
UAAUUUUUAGUAAGGAUAUCGGUCCCAAGGGACAACGAGAAGGUACAUGAGGAUCACCCAUGUGAUAAAAGAAU [Mod of Zala 5 - Jieux - Brourd's Mod of Exclusion 4] (Eterna round: R97, puzzle: Brourd's mod of Exclusion 4) | 204 | 28.8 | 
UACAAGCUUUGGCGAUCCUACAUGAGGAUCACCCAUGUGGGCCCGCCAGAGGCGGGCCCAUUUGCCCGUCUUGUGAA [Energy optimization 2] (Eterna round: R97, puzzle: Sensor, turn-off variant 1) | 16.3 | 16.3 | 
UACAUGAGGAUCACCCAUGUUUUGUCGUGUAUGGUACCCAUCUAGGAUAUCGUGUUAUUGGACCACGAGAAGGAGAGUAUCAAU [Excl-NG3-LRO01] (Eterna round: R96, puzzle: Exclusion NG 3) | 19.2 | 24.1 | apparent KD of MS2 coat protein [2]: 18.1 nM
UACAUGAGGAUCACCCAUGUUUUGUCGUGUAUGGUAUUUAUCUAGGAUAUCAAUGUAGUUAUUUAUGAGAAGGAGAAUAUUAAU [JMF's solution 41] (Eterna round: R96, puzzle: Exclusion NG 3) | 43 | 50.8 | apparent KD of MS2 coat protein [2]: 37.5 nM
UACAUGAGGAUCACCCAUGUUUUGUCGUGUAUGGUAUUUAUCUAGGAUAUCAUUUAAUUUAUUUAUGAGAAGGAGAAUAUUAAU [JMF's solution 99] (Eterna round: R96, puzzle: Exclusion NG 3) | 29.8 | 31.1 | apparent KD of MS2 coat protein [2]: 28 nM
